Test results published in paper PMC8539926.

Columns and labels:
CXCR4 [1] = molecular target: CXCR4 (UniProt P61073)
CXCR4 [2] = molecular target: CXCR4 (UniProt P61073); remark: listed apart in the source
CXCR4 [3] = molecular target: CXCR4 (UniProt P61073); remark: listed apart in the source

Sequence of UniProt P61073 (P61073 whole entry): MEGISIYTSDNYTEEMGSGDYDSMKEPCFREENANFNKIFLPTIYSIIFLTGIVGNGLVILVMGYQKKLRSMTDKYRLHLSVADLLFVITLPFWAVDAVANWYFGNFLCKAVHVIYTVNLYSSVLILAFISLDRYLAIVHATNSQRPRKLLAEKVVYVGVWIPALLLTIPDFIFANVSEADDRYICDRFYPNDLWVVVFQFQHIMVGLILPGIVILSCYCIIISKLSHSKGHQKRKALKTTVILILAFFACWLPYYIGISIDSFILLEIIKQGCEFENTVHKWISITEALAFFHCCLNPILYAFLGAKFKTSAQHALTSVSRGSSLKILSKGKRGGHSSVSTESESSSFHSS

CXCL12 wild type (from UniProt P48061-2 22-89) (ligand)
concentration of the best response, Transwell migration of Jurkat cells (endogenous CXCR4), 2 h, dilution series (CXCR4 [1]): 30 nM
Emax of IP accumulation, COS-7 cells with CXCR4-eYFP and chimeric Gαqi protein, normalized to CXCL12 wt (CXCR4 [2]): 100%

[S4V]-[V49A]-CXCL12 (from UniProt P48061-2 22-89) (ligand)
fold decrease in Jurkat cell migration (endogenous CXCR4) compared with CXCL12 wt, Transwell assay (CXCR4 [3]): 11 fold

[S4V]-[V49A]-CXCL12-GPLS (from UniProt P48061-2 22-89) (ligand)
fold regain of migration potential against compound 4, Jurkat cells (endogenous CXCR4), Transwell assay (CXCR4 [3]): 2 fold

[S4V]-[V49A]-CXCL12-MMPCS-SBP (from UniProt P48061-2 22-89) (ligand)
concentration of the migration maximum, Transwell migration of Jurkat cells (endogenous CXCR4), 2 h, dilution series (CXCR4 [1]): 700 nM
